This assay has as its target Cy5-labelled 46w60 mononucleosome (histone octamer on DNA). Put plainly: MST.

Some results are limits rather than exact numbers.

The term Kd denotes the equilibrium constant for the complex coming apart. A lower Kd goes with tighter binding. In turn, “human CHD4 (from UniProt Q14839 1-1912) (enzyme)” gave a Kd of 41 nM, a fold change of Kd with 2 uM (CA)20 RNA against no RNA of less than 2 fold and a fold reduction of affinity with 2 uM (GA)20 RNA against no RNA of 20 fold.
